Experiment [1] deals with T1, LGR5ΔCT (human LGR5 without the cytoplasmic C-terminal tail) on HEK293 cells (human, UniProt O75473 22-907).
T1 chain: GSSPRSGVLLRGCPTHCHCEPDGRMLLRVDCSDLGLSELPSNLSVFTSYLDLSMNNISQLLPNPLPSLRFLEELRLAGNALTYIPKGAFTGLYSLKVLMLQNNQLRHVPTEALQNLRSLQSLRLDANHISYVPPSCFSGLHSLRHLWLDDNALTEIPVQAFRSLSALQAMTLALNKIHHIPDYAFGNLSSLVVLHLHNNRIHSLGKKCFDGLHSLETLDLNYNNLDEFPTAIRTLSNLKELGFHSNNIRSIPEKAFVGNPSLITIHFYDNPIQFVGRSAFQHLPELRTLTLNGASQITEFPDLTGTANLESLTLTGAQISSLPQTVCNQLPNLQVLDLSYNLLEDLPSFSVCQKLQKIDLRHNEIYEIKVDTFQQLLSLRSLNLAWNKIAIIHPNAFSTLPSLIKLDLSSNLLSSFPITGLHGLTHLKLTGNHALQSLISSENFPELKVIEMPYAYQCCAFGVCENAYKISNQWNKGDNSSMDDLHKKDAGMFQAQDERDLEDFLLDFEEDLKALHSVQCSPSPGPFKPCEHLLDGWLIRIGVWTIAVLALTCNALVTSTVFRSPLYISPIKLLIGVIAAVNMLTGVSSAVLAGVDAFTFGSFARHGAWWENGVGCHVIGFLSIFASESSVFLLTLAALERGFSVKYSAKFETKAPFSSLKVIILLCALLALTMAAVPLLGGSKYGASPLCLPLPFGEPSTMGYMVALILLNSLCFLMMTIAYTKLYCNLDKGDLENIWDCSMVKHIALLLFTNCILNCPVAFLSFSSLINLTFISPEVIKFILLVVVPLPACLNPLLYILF

The target in experiment [2] is LGR4 (HA-LGR4) over-expressed on HEK293 cells (UniProt Q9BXB1 25-951).

From paper PMC10319729 (2023) come the findings set out here.

The term Kd denotes the free concentration of one partner at which half of the binding sites on the other are occupied at equilibrium, for simple one-to-one binding. Low values mean a tighter complex, high ones a looser complex.

B1: R2Fu-mFc (RSPO2 furin domain fused to monomeric human IgG4-Fc, monovalent) (Fc fusion)
chain: NPICKGCLSCSKDNGCSRCQQKLFFFLRREGMRQYGECLHSCPSGYYGHRAPDMNRCARCRIENCDSCFSKDFCTKCKVGFYLHRGRCFDECPDGFAPLEETMECVE
As to B1, in experiment [1], the Kd was found to be 2.3 nM.

B2: R2Fu-bFc (RSPO2 furin domain fused to wild-type IgG1-Fc, bivalent) (Fc fusion)
chain: B1 chain
Consider B2, for which the results for the Kd in experiment [2] and in experiment [1] were 9 nM and 1.8 nM, respectively.
